Measurements: publication PMC2995296

Legend:
[1] = biological target: 5-FAM-labeled phospho-T427 peptide of the Rad9 SCD (S. cerevisiae); experiment: fluorescence polarisation
[2] = biological target: GST-BRCT (Rad9 tandem BRCT domain fused to GST), wild type (S. cerevisiae); experiment: pull-down

Substance	Kd [1] [µM]	yield of N-SCD in the pull-down (percent of the starting material) [2] [%]
GST-BRCT (Rad9 tandem BRCT domain fused to GST), wild type (domain or fragment)	78	
PIKK-phosphorylated N-SCD (N-terminal fragment of Rad9-TEV-HA from MMS-treated cells) (from UniProt P14737 1-990) (domain or fragment)		> 10
